From article PMC3187708 (The Journal of Cell Biology, 2011)

Molecular target: T1, 6His-FIP5 (human, UniProt Q9BXF6 1-653)
T1 sequence (looked up): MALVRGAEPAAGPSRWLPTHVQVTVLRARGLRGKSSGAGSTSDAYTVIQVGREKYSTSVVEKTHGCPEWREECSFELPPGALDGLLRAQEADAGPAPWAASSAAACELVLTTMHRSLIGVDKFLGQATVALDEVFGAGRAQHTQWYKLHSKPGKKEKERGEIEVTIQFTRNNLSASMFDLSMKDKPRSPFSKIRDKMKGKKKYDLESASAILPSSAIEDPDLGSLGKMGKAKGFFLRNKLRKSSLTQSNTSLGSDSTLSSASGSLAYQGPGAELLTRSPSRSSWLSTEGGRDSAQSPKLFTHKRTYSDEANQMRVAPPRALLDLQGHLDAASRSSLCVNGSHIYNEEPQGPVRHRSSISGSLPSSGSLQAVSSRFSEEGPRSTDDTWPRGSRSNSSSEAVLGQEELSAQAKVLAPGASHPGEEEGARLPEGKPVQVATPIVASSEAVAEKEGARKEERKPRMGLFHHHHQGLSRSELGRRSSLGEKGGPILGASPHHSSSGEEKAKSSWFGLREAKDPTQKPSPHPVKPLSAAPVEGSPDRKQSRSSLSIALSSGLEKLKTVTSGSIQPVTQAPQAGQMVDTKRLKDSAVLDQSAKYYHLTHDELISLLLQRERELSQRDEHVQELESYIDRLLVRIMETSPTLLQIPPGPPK
Assay: ITC

Kd: 1560 nM
B1: GST-SNX18 (natural protein, human, UniProt Q96RF0 1-628, looked up)
chain: MALRARALYDFRSENPGEISLREHEVLSLCSEQDIEGWLEGVNSRGDRGLFPASYVQVIRAPEPGPAGDGGPGAPARYANVPPGGFEPLPVAPPASFKPPPDAFQALLQPQQAPPPSTFQPPGAGFPYGGGALQPSPQQLYGGYQASQGSDDDWDDEWDDSSTVADEPGALGSGAYPDLDGSSSAGVGAAGRYRLSTRSDLSLGSRGGSVPPQHHPSGPKSSATVSRNLNRFSTFVKSGGEAFVLGEASGFVKDGDKLCVVLGPYGPEWQENPYPFQCTIDDPTKQTKFKGMKSYISYKLVPTHTQVPVHRRYKHFDWLYARLAEKFPVISVPHLPEKQATGRFEEDFISKRRKGLIWWMNHMASHPVLAQCDVFQHFLTCPSSTDEKAWKQGKRKAEKDEMVGANFFLTLSTPPAAALDLQEVESKIDGFKCFTKKMDDSALQLNHTANEFARKQVTGFKKEYQKVGQSFRGLSQAFELDQQAFSVGLNQAIAFTGDAYDAIGELFAEQPRQDLDPVMDLLALYQGHLANFPDIIHVQKGKAWPLEQVIWSVLCRLKGATLTAVPLWVSESYSTGEEASRDVDAWVFSLECKLDCSTGSFLLEYLALGNEYSFSKVQRVPLMTVLSF
